Data from PMC4751364, “Mitotic Activation of a Novel Histone Deacetylase 3-Linker Histone H1.3 Protein Complex by Protein Kinase CK2*” (The Journal of Biological Chemistry, 2015).

Biological target: T1, Human recombinant HDAC3 (human, UniProt O15379 1-428)
T1 construct: human recombinant HDAC3 (Biomol); No catalogue number, host or tag is printed for the bought protein; also called recombinant human HDAC3; source: bought: Biomol
Assay: pull-down; recombinant HDAC3 (8 ug) incubated with recombinant H1.3 (4 ug), overnight at 4 C; pulled down with anti-HDAC3 antibody and protein A/G-agarose; SDS-PAGE, Coomassie staining
Details: both partners purified

T1 sequence (O15379 whole entry): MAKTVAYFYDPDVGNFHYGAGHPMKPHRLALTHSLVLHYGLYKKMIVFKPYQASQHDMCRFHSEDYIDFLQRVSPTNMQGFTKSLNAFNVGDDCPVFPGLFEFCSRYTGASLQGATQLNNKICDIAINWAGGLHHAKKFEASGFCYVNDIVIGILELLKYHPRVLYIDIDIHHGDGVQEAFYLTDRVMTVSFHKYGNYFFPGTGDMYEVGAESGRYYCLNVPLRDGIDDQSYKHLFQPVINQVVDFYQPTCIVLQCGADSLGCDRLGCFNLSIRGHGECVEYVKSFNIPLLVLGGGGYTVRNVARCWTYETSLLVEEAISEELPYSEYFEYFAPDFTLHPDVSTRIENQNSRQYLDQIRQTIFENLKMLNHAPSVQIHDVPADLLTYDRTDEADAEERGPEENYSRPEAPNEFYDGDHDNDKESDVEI

binding result: binds
B1: Human recombinant H1.3 (natural protein, UniProt P16402 1-221, looked up)
chain: MSETAPLAPTIPAPAEKTPVKKKAKKAGATAGKRKASGPPVSELITKAVAASKERSGVSLAALKKALAAAGYDVEKNNSRIKLGLKSLVSKGTLVQTKGTGASGSFKLNKKAASGEGKPKAKKAGAAKPRKPAGAAKKPKKVAGAATPKKSIKKTPKKVKKPATAAGTKKVAKSAKKVKTPQPKKAAKSPAKAKAPKPKAAKPKSGKPKVTKAKKAAPKKK
notes: human recombinant histone H1.3 (Alexis Biochemicals); No catalogue number, host or tag is printed for the bought protein; also called recombinant human histone H1.3; source: bought: Alexis Biochemicals
